Measured values from PMC8216847.

Target: SARS-HCoV-2 S2 extra-cellular domain (SARS-CoV-2)

Substance: CV3-25 (antibody)
- IC50 of neutralisation of SARS-CoV-2 pseudovirus on HEK293T-hACE2 cells: 0.34 µg/mL
